The data set deals with the molecule itself. Nature of the data set: negative-stain EM; TNKS2 SAM at 104 μM on carbon, 2% uranyl acetate; 3D refinement with D1 symmetry, projections compared with the SAM–PARP model and PDB 5JRT.

The text below walks through data of paper PMC9712121 (Nature, 2022).

B1: TNKS2 SAM (867–940), wild type (domain or fragment, human, UniProt Q9H2K2 867-940, looked up)
chain: EKKEVPGVDFSITQFVRNLGLEHLMDIFEREQITLDVLVEMGHKELKEIGINAYGHRHKLIKGVERLISGQQGL
notes: Tankyrase 2 (TNKS2), human, SAM domain, residues 867-940; also called SAM domain
As to B1, the binding result is reported as “binds”.
